Measured values from the Human Domainome abundance scans (Beltran et al. 2025).
± gives the uncertainty stated by the source.

B1: Chromodomain-helicase-DNA-binding protein 3, residues 374 to 426; numbered along this chain, Q12873 (parent)
chain: YETDHQDYCEVCQQGGEIILCDTCPRAYHLVCLDPELDRAPEGKWSCPHCEKE

Variants of: B1
Test: abundance fitness (aPCA) (normalised: wild type 0, dead -1); higher = more abundant; growth selection in yeast, the domain comes from the species named
Conditions: Homo sapiens

Y8I and Y8W are within error of each other in abundance fitness: 0.21 ± 0.21 for the first, -0.086 ± 0.12 for the second.

Going from Y8H to Y8K, the abundance fitness falls from 0.461 ± 0.13 to 0.141 ± 0.12.

Compared with Y8F, Y8Q is higher in abundance fitness: 0.083 ± 0.23 for the first, 0.499 ± 0.12 for the second.

First: Y8S
Second: Y8R
The abundance fitness of the first is lower: -0.026 ± 0.092 for the first, 0.25 ± 0.079 for the second.

Y8N and Y8P are within error of each other in abundance fitness: 0.061 ± 0.16 for the first, 0.302 ± 0.11 for the second.

Y8V and Y8G are within error of each other in abundance fitness: 0.053 ± 0.1 for the first, 0.165 ± 0.094 for the second.

Y8E and Y8L are within error of each other in abundance fitness: 0.098 ± 0.12 for the first, 0.215 ± 0.095 for the second.

Y8T and Y8C are within error of each other in abundance fitness: -0.118 ± 0.1 for the first, -0.211 ± 0.18 for the second.

E10P and E10V are within error of each other in abundance fitness: -0.006 ± 0.14 for the first, 0.137 ± 0.1 for the second.

First: E10G
Second: E10D
The abundance fitness of the first is lower: -0.139 ± 0.089 for the first, 0.169 ± 0.13 for the second.

Compared with E10S, E10M is lower in abundance fitness: 0.064 ± 0.097 for the first, -0.301 ± 0.13 for the second.

E10H and E10T are within error of each other in abundance fitness: 0.114 ± 0.16 for the first, 0.132 ± 0.12 for the second.

E10F and E10C are within error of each other in abundance fitness: -0.08 ± 0.14 for the first, 0.046 ± 0.12 for the second.

E10Y and E10L are within error of each other in abundance fitness: 0.158 ± 0.12 for the first, 0.259 ± 0.097 for the second.

Going from E10A to E10K, the abundance fitness rises from -0.083 ± 0.11 to 0.169 ± 0.13.

Compared with E10R, E10N is higher in abundance fitness: 0.027 ± 0.086 for the first, 0.268 ± 0.14 for the second.

E10Q and T3E are within error of each other in abundance fitness: 0.116 ± 0.18 for the first, 0.314 ± 0.14 for the second.

Going from T3C to T3R, the abundance fitness rises from -0.048 ± 0.12 to 0.206 ± 0.082.

Going from T3K to T3Q, the abundance fitness falls from 0.363 ± 0.12 to -0.069 ± 0.15.

First: T3M
Second: T3A
The abundance fitness of the first is higher: 0.377 ± 0.11 for the first, -0.179 ± 0.1 for the second.

T3G and T3F are within error of each other in abundance fitness: 0.136 ± 0.1 for the first, 0.236 ± 0.14 for the second.

Compared with T3H, T3W is higher in abundance fitness: -0.481 ± 0.22 for the first, 0.13 ± 0.13 for the second.

T3V and T3I are within error of each other in abundance fitness: -0.055 ± 0.093 for the first, -0.035 ± 0.14 for the second.

T3P and T3D are within error of each other in abundance fitness: -0.09 ± 0.12 for the first, -0.163 ± 0.15 for the second.

Compared with T3Y, D4R is lower in abundance fitness: 0.113 ± 0.14 for the first, -0.203 ± 0.11 for the second.

D4A and D4H are within error of each other in abundance fitness: 0.133 ± 0.085 for the first, -0.136 ± 0.22 for the second.

D4K and D4I are within error of each other in abundance fitness: -0.041 ± 0.15 for the first, -0.156 ± 0.15 for the second.

D4L and D4W are within error of each other in abundance fitness: 0.077 ± 0.086 for the first, -0.088 ± 0.13 for the second.

D4C and D4Y are within error of each other in abundance fitness: -0.066 ± 0.18 for the first, -0.126 ± 0.24 for the second.

Going from D4F to D4M, the abundance fitness rises from -0.055 ± 0.12 to 0.438 ± 0.11.

D4V and D4Q are within error of each other in abundance fitness: 0.166 ± 0.08 for the first, 0.075 ± 0.13 for the second.

D4T and D4G are within error of each other in abundance fitness: 0.079 ± 0.12 for the first, -0.001 ± 0.091 for the second.

First: D4N
Second: H5Q
The abundance fitness of the first is lower: -0.406 ± 0.15 for the first, 0.13 ± 0.11 for the second.

H5T and H5R are within error of each other in abundance fitness: 0.186 ± 0.11 for the first, 0.118 ± 0.093 for the second.

H5E and H5W are within error of each other in abundance fitness: -0.137 ± 0.14 for the first, -0.197 ± 0.12 for the second.

H5F and H5N are within error of each other in abundance fitness: -0.171 ± 0.29 for the first, 0.229 ± 0.14 for the second.

H5G and H5A are within error of each other in abundance fitness: 0.366 ± 0.11 for the first, 0.329 ± 0.1 for the second.

First: H5C
Second: H5D
The abundance fitness of the first is higher: 0.222 ± 0.24 for the first, -1.03 ± 0.24 for the second.

Going from H5V to H5P, the abundance fitness falls from 0.142 ± 0.092 to -0.071 ± 0.12.

H5S and H5L are within error of each other in abundance fitness: 0.302 ± 0.1 for the first, 0.161 ± 0.087 for the second.

C12L and C12F are within error of each other in abundance fitness: -0.866 ± 0.099 for the first, -0.903 ± 0.23 for the second.

C12I and C12A are within error of each other in abundance fitness: -0.947 ± 0.2 for the first, -0.712 ± 0.15 for the second.

C12E and C12H are within error of each other in abundance fitness: -0.83 ± 0.16 for the first, -0.999 ± 0.17 for the second.

C12G and C12D are within error of each other in abundance fitness: -0.845 ± 0.11 for the first, -0.7 ± 0.34 for the second.

Compared with C12K, Y1C is higher in abundance fitness: -0.757 ± 0.15 for the first, 0.258 ± 0.21 for the second.

Y1N and Y1K are within error of each other in abundance fitness: -0.287 ± 0.25 for the first, 0.352 ± 0.46 for the second.

Y1W and Y1V are within error of each other in abundance fitness: 0.259 ± 0.21 for the first, 0.156 ± 0.2 for the second.

Y1S and Y1E are within error of each other in abundance fitness: -0.264 ± 0.34 for the first, 0.154 ± 0.33 for the second.

Y1G and Y1I are within error of each other in abundance fitness: 0.416 ± 0.21 for the first, 0.557 ± 0.34 for the second.

Y1L and Y1D are within error of each other in abundance fitness: 0.172 ± 0.27 for the first, -0.2 ± 0.19 for the second.

Going from Q6F to Q6H, the abundance fitness rises from -0.579 ± 0.18 to -0.014 ± 0.15.

Q6E and Q6P are within error of each other in abundance fitness: -0.227 ± 0.22 for the first, -0.353 ± 0.16 for the second.

Q6A and Q6R are within error of each other in abundance fitness: -0.209 ± 0.27 for the first, -0.139 ± 0.14 for the second.

Q6G and Q6C are within error of each other in abundance fitness: -0.299 ± 0.21 for the first, -0.499 ± 0.17 for the second.

Q6D and Q6W are within error of each other in abundance fitness: -0.294 ± 0.28 for the first, -0.378 ± 0.17 for the second.

Q6S and Q6Y are within error of each other in abundance fitness: -0.439 ± 0.12 for the first, -0.267 ± 0.14 for the second.
